Results taken from patent US20050148763A1, “Peg-binding pth or peg-binding pth derivative” (Chugai Seiyaku Kabushiki Kaisha, priority 2002, published 2005).

Tests used:
human PTH1 receptors [1] = molecular target: T1, human PTH1 receptors (Homo sapiens, UniProt Q03431); assay: in vitro ability to produce cAMP, HKRK-B64 cells; assay type: cell-based; conditions: Table 2(2), n=2-3
T1 construct: expressed in transfected cells; host or cells: HKRK-B7 and HKRK-B64 cells (derived from pig kidney LLC-PK1 cells)
T1 sequence (Q03431 27-593): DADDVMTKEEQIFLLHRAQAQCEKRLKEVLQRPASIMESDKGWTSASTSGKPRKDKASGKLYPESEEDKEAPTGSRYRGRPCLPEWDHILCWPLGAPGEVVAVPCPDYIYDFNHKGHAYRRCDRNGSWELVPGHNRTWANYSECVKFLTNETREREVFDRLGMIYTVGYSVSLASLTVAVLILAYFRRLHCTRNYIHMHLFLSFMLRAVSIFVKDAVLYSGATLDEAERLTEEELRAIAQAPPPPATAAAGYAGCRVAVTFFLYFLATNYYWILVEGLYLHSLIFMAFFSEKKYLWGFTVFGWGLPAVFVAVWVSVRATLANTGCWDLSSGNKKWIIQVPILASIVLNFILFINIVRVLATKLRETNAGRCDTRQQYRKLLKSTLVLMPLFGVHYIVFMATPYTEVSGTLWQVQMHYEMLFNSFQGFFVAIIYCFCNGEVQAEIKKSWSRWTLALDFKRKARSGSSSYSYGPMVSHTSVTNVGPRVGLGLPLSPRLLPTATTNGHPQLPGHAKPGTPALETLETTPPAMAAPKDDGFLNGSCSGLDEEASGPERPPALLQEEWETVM
Experimental: Each PEG-PTH sample was assayed for its ability to produce cAMP (indicative of the increasing effect of PTH on bone mass) as follows. HKRK-B7 and HKRK-B64 cells, genetically modified from pig kidney-derived LLC-PK1 cells to overexpress human PTH1 receptors at levels of about 1×10^6 and 9×10^4 receptors per cell, respectively, as well as EW29 cells expressing about 1.9×10^5 rat PTH1 receptors per cell (Takasu et al., J. Bone. Miner. Res. 14: 11-20, 1999) were grown in DMEM supplemented with 10% FBS, 1% penicillin and 1% streptomycin. These cells were seeded in 96-well plates at 1×10^5 cells/well and incubated overnight. On the following day, the cells were washed once with 200 μL binding buffer (50 mM Tris-HCl/100 mM NaCl/5 mM KCl/2 mM CaCl2/5% inactivated horse serum/0.5% inactivated bovine serum, pH 7.7), followed by addition of 100 μL cAMP assay buffer (DMEM/2 mM 3-isobutyl-1-methylxanthine/1 mg/mL bovine serum albumin/35 mM HEPES-NaOH, pH 7.4) on ice. […] After removing the reaction solution, the plates were placed on powdered dry ice to freeze the cells and then removed from the dry ice. The cells were thawed with 50 μL of 50 mM HCl and frozen again on dry ice. The level of intracellular cAMP was determined with a commercially available EIA kit (Biotrak cAMP EIA system, Amersham).

rat PTH1 receptors = molecular target: T2, rat PTH1 receptors (Rattus norvegicus, UniProt P25961); assay: in vitro ability to produce cAMP, EW29 cells; assay type: cell-based; conditions: Table 2(3), n=2-3
T2 construct: expressed in transfected cells; host or cells: EW29 cells
T2 sequence (P25961 27-591): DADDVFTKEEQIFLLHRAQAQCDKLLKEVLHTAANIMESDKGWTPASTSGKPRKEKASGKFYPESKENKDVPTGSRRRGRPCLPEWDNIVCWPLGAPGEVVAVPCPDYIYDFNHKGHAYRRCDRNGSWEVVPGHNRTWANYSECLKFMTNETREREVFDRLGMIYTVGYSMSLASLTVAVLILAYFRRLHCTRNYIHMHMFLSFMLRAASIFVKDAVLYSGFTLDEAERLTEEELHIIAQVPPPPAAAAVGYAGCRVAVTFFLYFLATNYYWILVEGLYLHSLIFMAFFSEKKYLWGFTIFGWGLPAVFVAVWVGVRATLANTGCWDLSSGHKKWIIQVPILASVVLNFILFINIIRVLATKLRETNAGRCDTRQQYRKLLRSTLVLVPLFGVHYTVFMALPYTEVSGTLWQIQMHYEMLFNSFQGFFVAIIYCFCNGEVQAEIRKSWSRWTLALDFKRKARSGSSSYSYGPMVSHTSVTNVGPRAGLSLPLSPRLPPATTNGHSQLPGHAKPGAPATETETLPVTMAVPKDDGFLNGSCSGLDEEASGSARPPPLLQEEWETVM
Experimental: (§1) Each PEG-PTH sample was assayed for its ability to produce cAMP (indicative of the increasing effect of PTH on bone mass) as follows. […] These cells were seeded in 96-well plates at 1×10^5 cells/well and incubated overnight. […] After removing the reaction solution, the plates were placed on powdered dry ice to freeze the cells and then removed from the dry ice. The cells were thawed with 50 μL of 50 mM HCl and frozen again on dry ice. The level of intracellular cAMP was determined with a commercially available EIA kit (Biotrak cAMP EIA system, Amersham).

human PTH1 receptors [2] = molecular target: T1, human PTH1 receptors; assay: in vitro ability to produce cAMP, HKRK-B7 cells; assay type: cell-based; conditions: Table 2(1), n=2-3
Experimental: as §1

[3] = Hypercalcemic effect of PEG-[Cys^35]-PTH(1-35) in normal female DDY mice; assay type: in vivo; conditions: for Blood iCa level Hour 1: 1 hour after administration; for Blood iCa level Hour 3: 3 hours; for Blood iCa level Hour 6: 6 hours; for Blood iCa level Hour 9: 9 hours; for Blood iCa level Hour 24: 24 hours; for Blood iCa level Hour 0: before administration; for hypercalcemic effect (in words): female DDY mice, sc, 10-150 nmol/kg
Experimental: 2 k, 5 k and 20 k PEG-[Cys^35]-PTH(1-35) were also adjusted similarly to 30, 10 and 2 nmol/mL (calculated as PTH) and allowed to stand on ice immediately before administration.
Using female DDY mice at 6 weeks of age (Japan SLC, Inc.), the corrected level of ionized calcium at pH 7.4 was determined for each sample in the same manner as shown in (1) above. The mice received subcutaneous administration of each drug at a dose of 5 mL/kg. The buffer was administered to a group of 5 mice. […] 150 nmol/kg 2 k, 5 k and 20 k PEG-[Cys^35]-PTH(1-35) were administered to groups of 4 mice each. 50 and 10 nmol/kg 2 k, 5 k and 20 k PEG-[Cys^35]-PTH(1-35) were administered to groups of 5 mice each. At 1, 3, 6, 9 and 24 hours after administration, blood was collected by orbital puncture to monitor the time course of corrected blood ionized calcium levels.

[4] = Pharmacokinetics and bioavailability in rats by subcutaneous route; assay type: in vivo; conditions: for BA: subcutaneous route
Experimental: (§2) Each sample was adjusted to 80 μg/mL by dilution with 25 mmol/L citrate-phosphate buffer (pH 5.0) containing 100 mmol/L NaCl and 0.05 vol % Tween 20 to give a solution for administration. Male SD rats at 6 weeks of age (CLEA Japan, Inc.) were provided for this experiment. Intravenous injection was performed on rats having polyethylene tubes (SP-31, Natsume Seisakusho Co., Ltd.) inserted into the femoral artery and vein. The solutions thus prepared were each administered at a dose of 1 mL/kg through a polyethylene tube inserted into the femoral vein, and blood was collected through a polyethylene tube inserted into the femoral artery before administration and at 5, 15, 30 and 45 minutes as well as 1, 2, 4, 6, 8 and 24 hours after administration. Subcutaneous administration was performed on rats having polyethylene tubes inserted into the femoral artery. The solutions prepared above were each subcutaneously administered at a dose of 1 mL/kg to the dorsal neck region of the rats, and blood was collected in the same manner as used for intravenous injection. These blood samples were centrifuged to collect plasma and stored at −40° C. until assayed for PTH(1-34) or PEG-PTH(1-34) levels.
(§3) The level of PTH(1-34) or PEG-PTH(1-34) was determined by RIA analysis using a Rat PTH IRMA Kit (Immutopics). A Cobra Quantum Model 5005 gamma counter (Packard) was used to measure radioactivity for each sample. The plasma level of PTH(1-34) or PEG-PTH(1-34) was calculated from a calibration curve prepared using PTH(1-34) or PEG-PTH(1-34). The Winnonlin program Ver. 2.1 (Scientific Consulting Inc.) was used to analyze the time course of changes in the calculated plasma PTH(1-34) or PEG-PTH(1-34) levels (FIG. 3: by intravenous route; FIG. 4: by subcutaneous route) to calculate the following as pharmacokinetic parameters: time required to reach the maximum plasma level (Tmax); maximum plasma level (Cmax); area under the curve of plasma levels (AUC); plasma half-life (t1/2); total body clearance (Cltotal); mean residence time in the body (MRT); and bioavailability (BA). […]

[5] = Pharmacokinetics in rats by intravenous route; assay type: in vivo; conditions: 80 μg/mL at 1 mL/kg
Experimental: as §2, §3

[6] = Hypercalcemic effect of PEG-PTH(1-34) in normal male BDF1 mice; assay type: in vivo
Experimental: 2 k and 5 k PEG-PTH(1-34) were also adjusted similarly to 30 nmol/mL (calculated as PTH) and allowed to stand on ice immediately before administration.
Male BDF1 mice at 5 weeks of age (Charles River Japan, Inc.) were measured for their body weight. Immediately before drug administration, blood was collected by orbital puncture into heparinized capillary tubes and measured for baseline levels of blood ionized calcium and pH using a Ca^2+/pH analyzer (Model 348/Bayer Medical Ltd.) to give the corrected level of ionized calcium at pH 7.4 for each sample. The mice received subcutaneous administration of each drug at a dose of 5 mL/kg. […] At 1, 3 and 6 hours after administration, blood was collected by orbital puncture to monitor the time course of corrected blood ionized calcium levels.

[7] = subcutaneous, 80 μg/mL at 1 mL/kg

## 20 k PEG-[Cys^35]-hPTH(1-35): [Cys^35]-hPTH(1-35) conjugated with 20 kDa PEG (SVSEIQLMHNLGKHLNSMERVEWLRKKLQDVHNFC; Parathyroid hormone 20 kDa PEG at Cys35; UniProt P01270 32-66, looked up, variant V35C)
Human PTH1 receptors [1]
  Maximum cAMP response: 79.6 ± 14.6 pmol/well
Human PTH1 receptors [1]; cAMP production
  EC50: 8 nM
Rat PTH1 receptors
  Maximum cAMP response: 59.4 ± 12.9 pmol/well
Rat PTH1 receptors; cAMP production
  EC50: 9.1 nM
Human PTH1 receptors [2]
  Maximum cAMP response: 131.1 ± 7.5 pmol/well
Human PTH1 receptors [2]; cAMP production
  EC50: 2.7 nM
[3]; 10 nmol/kg sc
  Blood iCa level Hour 1: 1.39 ± 0.03 mM
  Blood iCa level Hour 3: 1.51 ± 0.01 mM
  Blood iCa level Hour 6: 1.48 ± 0.05 mM
  Blood iCa level Hour 9: 1.43 ± 0.05 mM
  Blood iCa level Hour 24: 1.78 ± 0.09 mM
  Blood iCa level Hour 0: 1.27 ± 0.04 mM
[3]; 50 nmol/kg sc
  Blood iCa level Hour 1: 1.44 ± 0.03 mM
  Blood iCa level Hour 3: 1.53 ± 0.02 mM
  Blood iCa level Hour 6: 1.51 ± 0.03 mM
  Blood iCa level Hour 9: 1.44 ± 0.06 mM
  Blood iCa level Hour 24: 2.44 ± 0.12 mM
  Blood iCa level Hour 0: 1.30 ± 0.04 mM
[3]; 150 nmol/kg sc
  Blood iCa level Hour 1: 1.42 ± 0.02 mM
  Blood iCa level Hour 3: 1.54 ± 0.02 mM
  Blood iCa level Hour 6: 1.55 ± 0.03 mM
  Blood iCa level Hour 9: 1.43 ± 0.06 mM
  Blood iCa level Hour 24: 2.71 ± 0.19 mM
  Blood iCa level Hour 0: 1.30 ± 0.02 mM
[3]; listed as 20 k PEG-(Cys^35]-PTH(1-35)
  hypercalcemic effect (in words): very high blood ionized calcium levels at all tested doses
[3]; listed as 20 k PEG-[Cys^35]-PTH (1-35)
  hypercalcemic effect (in words): maintained a significantly higher level than that of the buffer group even at 9 hours after administration

## 2k PEG-hPTH(1-34): hPTH(1-34) reacted with mPEG 2 k-SPA, fraction having one 2 kDa PEG molecule per PTH molecule
[4]; listed as 2 k PEG-PTH (1-34)
  BA: 56.1%
[4]; listed as 2 k PEG-PTH(1-34)
  BA: about 56.1%
[4]; [7]
  AUC: 53.78 ng·h/mL
  MRT: 1.684 h
  Tmax: 0.300 h
  t ½: 1.231 h
[5]
  AUC: 95.781 ng·h/mL
  Cltotal: 14.03 mL/min/kg
  MRT: 0.465 h
  t ½: 1.128 h
[6]; 150 nmol/kg sc
  increase in blood ionized calcium levels (in words): almost the same increase in ionized calcium levels as observed with 500 nmol/kg hPTH(1-34)
  increased blood ionized calcium level maintained until: 3 h
[6]; sc, hPTH(1-34) 50-500 nmol/kg, PEG-PTHs 150 nmol/kg
  time of maximum increase in blood ionized calcium levels after administration: one
